Test results as given in the supplement of paper PMC7877785.
± gives the uncertainty stated by the source.

Experiment: self-splicing fitness, log relative to wild type (ln ratio); higher = more splicing; Tetrahymena group I intron in knt gene, E. coli kanamycin selection, DiMSum; sequences stand for … in CUCUCU…GGAGGGAAAAGUUAUCAGGCAUGCACCUGGUAGCUAGUCUUUAAACCAAUAGAUUGCAUCGGUUUAAAAGGCAAGACCGUCAAAUUGCGGGAAAGGGGUCAACAGCCGUUCAGUACCAAGUCUCAGGGGAAACUUUGAGAUGGCCUUGCAAAGGGUAUGGUAAUAAGCUGACGGACAUGGUCCUAACCACGCAGCCAAGUCCUAAGUCAACAGAUCUUCUGUUGAUAUGGAUGCAGUUCACAGACUAAAUGUCGGUCGGGGAAGAUGUAUUCUUCUCAUAAGAUAUAGUCGGACCUCUCCUUAAUGGGAGCUAGCGGAUGAAGUGAUGCAACACUGGAGCCGCUGGGAACUAAUUUGUAUGCGAAAGUAUAUUGAUUAGUUUUGGAGUACUCGUGGUCG
Outline: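 A randomised library covering all eight P1ex-region intron nucleotides was built with the intron in the knt kanamycin-resistance gene on pET-22b(+) and held in E. coli BL21(DE3). Cells were grown overnight at 37°C or 30°C on LB agar, with or without 25 μg/mL kanamycin, plus 100 μg/mL carbenicillin, 50 μM IPTG and 0.2% rhamnose, and pooled colonies were amplicon-sequenced on an Illumina HiSeq 2500. DiMSum fitness is the error-weighted combination of wild-type-normalised replicate fold changes, kanamycin versus none.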

AGCCAGCAAUAUUACGCUUA
self-splicing fitness (ln) (30 °C): -2.09 ± 0.11 | self-splicing fitness (ln) (37 °C): -1.4 ± 0.093

AGCCAGCAAUAUUACGCUUU
self-splicing fitness (ln) (30 °C): -2.84 ± 0.089 | self-splicing fitness (ln) (37 °C): -0.852 ± 0.086

AGCCAGCAAUAUUACGGCCC
self-splicing fitness (ln) (37 °C): -0.0646 ± 0.48

AGCCAGCAAUAUUACGGCGC
self-splicing fitness (ln) (30 °C): -1.51 ± 0.13 | self-splicing fitness (ln) (37 °C): -0.844 ± 0.16

AGCCAGCAAUAUUACGGUCG
self-splicing fitness (ln) (30 °C): -0.387 ± 0.078 | self-splicing fitness (ln) (37 °C): -0.328 ± 0.092

AGCCAGCAAUAUUACGUAAU
self-splicing fitness (ln) (30 °C): -1.71 ± 0.11 | self-splicing fitness (ln) (37 °C): -0.608 ± 0.12

AGCCAGCAAUAUUACGUACU
self-splicing fitness (ln) (30 °C): -0.0754 ± 0.072 | self-splicing fitness (ln) (37 °C): 0.219 ± 0.086

AGCCAGCAAUAUUACGUAGA
self-splicing fitness (ln) (30 °C): -2.62 ± 0.1 | self-splicing fitness (ln) (37 °C): -1.84 ± 0.15

AGCCAGCAAUAUUACGUCGA
self-splicing fitness (ln) (30 °C): -3.17 ± 0.17 | self-splicing fitness (ln) (37 °C): -2.88 ± 0.18

AGCCAGCAAUAUUACGUGCA
self-splicing fitness (ln) (30 °C): -0.689 ± 0.068 | self-splicing fitness (ln) (37 °C): 0.0293 ± 0.087

AGCCAGCAAUAUUACGUUAA
self-splicing fitness (ln) (30 °C): -2.44 ± 0.17 | self-splicing fitness (ln) (37 °C): -2.59 ± 0.2

AGCCAGCAAUAUUACGUUGA
self-splicing fitness (ln) (30 °C): -3.31 ± 0.13 | self-splicing fitness (ln) (37 °C): -2.04 ± 0.16

AGCCAGCAAUAUUACGUUUU
self-splicing fitness (ln) (30 °C): -3.78 ± 0.14 | self-splicing fitness (ln) (37 °C): -2.06 ± 0.11

AGCGAGCAAUAUUACGACCG
self-splicing fitness (ln) (30 °C): -1.98 ± 0.23 | self-splicing fitness (ln) (37 °C): -1.84 ± 0.32

AGCGAGCAAUAUUACGACGC
self-splicing fitness (ln) (30 °C): -1.92 ± 0.25 | self-splicing fitness (ln) (37 °C): 0.245 ± 0.2

AGCGAGCAAUAUUACGAGGA
self-splicing fitness (ln) (30 °C): -2.36 ± 0.15 | self-splicing fitness (ln) (37 °C): -2.6 ± 0.22

AGCGAGCAAUAUUACGAGUU
self-splicing fitness (ln) (30 °C): -2.61 ± 0.19 | self-splicing fitness (ln) (37 °C): -1.21 ± 0.18

AGCGAGCAAUAUUACGAUGU
self-splicing fitness (ln) (30 °C): -2.99 ± 0.19 | self-splicing fitness (ln) (37 °C): -1.46 ± 0.18

AGCGAGCAAUAUUACGCUGG
self-splicing fitness (ln) (30 °C): -3.39 ± 0.28 | self-splicing fitness (ln) (37 °C): -3.38 ± 0.42

AGCGAGCAAUAUUACGGCAA
self-splicing fitness (ln) (30 °C): -1.93 ± 0.13 | self-splicing fitness (ln) (37 °C): -1.71 ± 0.15

AGCGAGCAAUAUUACGGCCU
self-splicing fitness (ln) (30 °C): -0.967 ± 0.17 | self-splicing fitness (ln) (37 °C): -0.258 ± 0.19

AGCGAGCAAUAUUACGGCGA
self-splicing fitness (ln) (30 °C): -0.915 ± 0.22 | self-splicing fitness (ln) (37 °C): -0.377 ± 0.27

AGCGAGCAAUAUUACGGGCG
self-splicing fitness (ln) (30 °C): -1.23 ± 0.08 | self-splicing fitness (ln) (37 °C): -0.431 ± 0.099

AGCGAGCAAUAUUACGGUCA
self-splicing fitness (ln) (30 °C): -2.05 ± 0.12 | self-splicing fitness (ln) (37 °C): -0.626 ± 0.11

AGCGAGCAAUAUUACGGUUG
self-splicing fitness (ln) (30 °C): -2.69 ± 0.24 | self-splicing fitness (ln) (37 °C): -2.05 ± 0.21

AGCGAGCAAUAUUACGUGAU
self-splicing fitness (ln) (30 °C): -2.98 ± 0.21 | self-splicing fitness (ln) (37 °C): -3.09 ± 0.35

AGCGAGCAAUAUUACGUGUA
self-splicing fitness (ln) (30 °C): -2.83 ± 0.12 | self-splicing fitness (ln) (37 °C): -1.98 ± 0.13

AGCGAGCAAUAUUACGUGUG
self-splicing fitness (ln) (30 °C): -3.86 ± 0.22 | self-splicing fitness (ln) (37 °C): -2.88 ± 0.17

AGCGAGCAAUAUUACGUGUU
self-splicing fitness (ln) (30 °C): -3.06 ± 0.16 | self-splicing fitness (ln) (37 °C): -2.79 ± 0.26

AGCGAGCAAUAUUACGUUUG
self-splicing fitness (ln) (30 °C): -3.44 ± 0.2 | self-splicing fitness (ln) (37 °C): -3.64 ± 0.31

AGCUAGCAAUAUUACGAAGU
self-splicing fitness (ln) (30 °C): -4.06 ± 0.32 | self-splicing fitness (ln) (37 °C): -1.73 ± 0.26

AGCUAGCAAUAUUACGACAA
self-splicing fitness (ln) (30 °C): -1.68 ± 0.18 | self-splicing fitness (ln) (37 °C): -1.34 ± 0.15

AGCUAGCAAUAUUACGAGCA
self-splicing fitness (ln) (30 °C): -1.16 ± 0.21 | self-splicing fitness (ln) (37 °C): 0.177 ± 0.17

AGCUAGCAAUAUUACGAUAC
self-splicing fitness (ln) (30 °C): -3.44 ± 0.49 | self-splicing fitness (ln) (37 °C): -1.59 ± 0.28

AGCUAGCAAUAUUACGAUAU
self-splicing fitness (ln) (30 °C): -0.87 ± 0.17 | self-splicing fitness (ln) (37 °C): 0.27 ± 0.11

AGCUAGCAAUAUUACGCAGU
self-splicing fitness (ln) (30 °C): -2.97 ± 0.19 | self-splicing fitness (ln) (37 °C): -2.02 ± 0.26

AGCUAGCAAUAUUACGCGAU
self-splicing fitness (ln) (30 °C): -3 ± 0.31 | self-splicing fitness (ln) (37 °C): -2.14 ± 0.22

AGCUAGCAAUAUUACGCGCC
self-splicing fitness (ln) (30 °C): -2.25 ± 0.23 | self-splicing fitness (ln) (37 °C): -2.04 ± 0.29

AGCUAGCAAUAUUACGCGGG
self-splicing fitness (ln) (30 °C): -3.3 ± 0.15 | self-splicing fitness (ln) (37 °C): -1.53 ± 0.14

AGCUAGCAAUAUUACGCUUU
self-splicing fitness (ln) (30 °C): -3.48 ± 0.25 | self-splicing fitness (ln) (37 °C): -2.57 ± 0.23

AGCUAGCAAUAUUACGGAGG
self-splicing fitness (ln) (30 °C): -3.54 ± 0.16 | self-splicing fitness (ln) (37 °C): -1.33 ± 0.14

AGCUAGCAAUAUUACGGCCC
self-splicing fitness (ln) (30 °C): -0.559 ± 0.2 | self-splicing fitness (ln) (37 °C): 0.0329 ± 0.35

AGCUAGCAAUAUUACGGCUA
self-splicing fitness (ln) (30 °C): -0.83 ± 0.14 | self-splicing fitness (ln) (37 °C): -0.754 ± 0.15

AGCUAGCAAUAUUACGGCUG
self-splicing fitness (ln) (30 °C): -0.696 ± 0.11 | self-splicing fitness (ln) (37 °C): -0.185 ± 0.14

AGCUAGCAAUAUUACGGUAU
self-splicing fitness (ln) (30 °C): -1.44 ± 0.08 | self-splicing fitness (ln) (37 °C): -0.9 ± 0.1

AGCUAGCAAUAUUACGUACA
self-splicing fitness (ln) (30 °C): -2.25 ± 0.23 | self-splicing fitness (ln) (37 °C): 0.0781 ± 0.18

AGCUAGCAAUAUUACGUCAU
self-splicing fitness (ln) (30 °C): -2.65 ± 0.1 | self-splicing fitness (ln) (37 °C): -1.54 ± 0.1

AGCUAGCAAUAUUACGUCGC
self-splicing fitness (ln) (30 °C): -3.1 ± 0.18 | self-splicing fitness (ln) (37 °C): -2.77 ± 0.36
